Source: the supplement of paper PMC9233669
Variants at the floor of the assay were thinned out.

Legend:
biotinyl-Phe-oxazolone = experiment: self-aminoacylation, catalytic enhancement (BFO) (fold over background); higher = more active; k-Seq, kA / k0A0; sequences stand for … in GGGAAUGGAUCCACAUCUACGAAUUC…UUCACUGCAGACUUGACGAAGCUG
Procedure, shortened: (§1)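 Mutagenized RNA pools (0.43 μM; 21-nt variable region) were treated with 2–1250 μM of each biotinyl-aminoacyl-oxazolone. Conditions were 50 μL HEPES/NaCl/KCl/MgCl2/CaCl2 buffer, 5% acetonitrile, pH 6.9–7.0, room temperature, 90 minutes. Catalytic enhancement, the median kA relative to the uncatalyzed rate, was derived from streptavidin capture, qPCR and Illumina sequencing.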

biotinyl-Ile-oxazolone = experiment: self-aminoacylation, catalytic enhancement (BIO) (fold over background); higher = more active; k-Seq, kA / k0A0; sequences stand for … in GGGAAUGGAUCCACAUCUACGAAUUC…UUCACUGCAGACUUGACGAAGCUG
Procedure, shortened: as §1

biotinyl-Trp-oxazolone = experiment: self-aminoacylation, catalytic enhancement (BWO) (fold over background); higher = more active; k-Seq, kA / k0A0; sequences stand for … in GGGAAUGGAUCCACAUCUACGAAUUC…UUCACUGCAGACUUGACGAAGCUG
Procedure, shortened: as §1

biotinyl-Val-oxazolone = experiment: self-aminoacylation, catalytic enhancement (BVO) (fold over background); higher = more active; k-Seq, kA / k0A0; sequences stand for … in GGGAAUGGAUCCACAUCUACGAAUUC…UUCACUGCAGACUUGACGAAGCUG
Procedure, shortened: as §1

biotinyl-Met-oxazolone = experiment: self-aminoacylation, catalytic enhancement (BMO) (fold over background); higher = more active; k-Seq, kA / k0A0; sequences stand for … in GGGAAUGGAUCCACAUCUACGAAUUC…UUCACUGCAGACUUGACGAAGCUG
Procedure, shortened: as §1

biotinyl-Leu-oxazolone = experiment: self-aminoacylation, catalytic enhancement (BLO) (fold over background); higher = more active; k-Seq, kA / k0A0; sequences stand for … in GGGAAUGGAUCCACAUCUACGAAUUC…UUCACUGCAGACUUGACGAAGCUG
Procedure, shortened: as §1

Sequence	self-aminoacylation (biotinyl-Phe-oxazolone)	self-aminoacylation (biotinyl-Ile-oxazolone)	self-aminoacylation (biotinyl-Trp-oxazolone)	self-aminoacylation (biotinyl-Val-oxazolone)	self-aminoacylation (biotinyl-Met-oxazolone)	self-aminoacylation (biotinyl-Leu-oxazolone)
AAGUUGGCUAACAGUCGCAAG [Fam3.1 aminoacylation ribozyme variant]	2.15	2.05	2.26			
CCACACUUCAAGCAAACGGGC [Fam1B.1 aminoacylation ribozyme variant]				2.03		
AACUUUGCUAAUAGUUGCAAG [Fam3.1 aminoacylation ribozyme variant]	3.03	2.21				
CUUACCUUGGUCAUCGAGUGA [Fam2.1 aminoacylation ribozyme variant]	3.62		3.9	2.66	3.25	2.99
AUUAACCUGGUCCUCGAGUGA [Fam2.1 aminoacylation ribozyme variant]	19.7	2.3	4.11		3.92	4.42
CUUACCGUGGUCAUCGAGUGA [Fam2.1 aminoacylation ribozyme variant]	10.3		3.87	2.68	3.29	2.59
AUUCACCUAAGUCAUUGGGUG [Fam2.2 aminoacylation ribozyme variant]	20.5	2.31	2.6		3.48	3.65
AAAUUUGCUAAGAGUCGCAAG [Fam3.1 aminoacylation ribozyme variant]	2.61	2.05	2.51			
AUUACCCUGCUCAUCGUGUGA [Fam2.1 aminoacylation ribozyme variant]	14.7		3.19		2.7	2.85
CCACACAUCAAGCAAUCGGGC [Fam1B.1 aminoacylation ribozyme variant]		2.01	2.1			
AUUACCGUGGUCAUCAAGUGA [Fam2.1 aminoacylation ribozyme variant]	4.54		3.6		2.83	3.05
AUUAACCUAGUUCAUCGGGUG [Fam2.2 aminoacylation ribozyme variant]	12.3		2.54		2.14	2.71
CCGCCCUUCAAGCAAUCGGUC [Fam1B.1 aminoacylation ribozyme variant]	38.9		29.9	2.62		2.13
AUUACCCUGGUCAUCUCGUGA [Fam2.1 aminoacylation ribozyme variant]	12.4		2.81		2.37	2.62
AUUACACUCGUCAUCGAGUGA [Fam2.1 aminoacylation ribozyme variant]	18	2.13	4.43		3.51	3.87
AUUUACCUAGUUCAUCGGGUG [Fam2.2 aminoacylation ribozyme variant]	15.2	2.13	2.25		2.61	3.25
AUUCACCUAGGUCAACUGGUG [Fam2.2 aminoacylation ribozyme variant]	15.9		2.21		2.69	3.35
AUUCACCUAUGUCAUUGGGUG [Fam2.2 aminoacylation ribozyme variant]	9.21		2.13		2.03	2.34
CCACCCUUCAAGCAUUCGGUC [Fam1B.1 aminoacylation ribozyme variant]				2.56		

Sequence	self-aminoacylation (biotinyl-Phe-oxazolone)	self-aminoacylation (biotinyl-Ile-oxazolone)	self-aminoacylation (biotinyl-Trp-oxazolone)	self-aminoacylation (biotinyl-Val-oxazolone)	self-aminoacylation (biotinyl-Met-oxazolone)	self-aminoacylation (biotinyl-Leu-oxazolone)
AUUGCCCUGGUCAUCGAGUGC [Fam2.1 aminoacylation ribozyme variant]	11.6		4.08	2.32	4.79	4.73
AUUACACUGGUCAUCCAGUGA [Fam2.1 aminoacylation ribozyme variant]	9.37		3.06		3.47	3.01
CAGUUUGCUAAUAGUCGCGAG [Fam3.1 aminoacylation ribozyme variant]	12.2	2.33	3.86	2.01		3.12
AACUAUGCUAAUAGUCGCAAG [Fam3.1 aminoacylation ribozyme variant]	2.45	2.41				2.16
CUACUUCAAACACUCGGGCUG [Fam1A.1 aminoacylation ribozyme variant]		2.18		2.2		2.06
CCACACCUCAAGCAAUCGCUC [Fam1B.1 aminoacylation ribozyme variant]	9.63	2.12	3.13		2.85	2.72
AUUACGCUCGUCAUCGAGUGA [Fam2.1 aminoacylation ribozyme variant]	3.68		2.54		2.09	2.5
AUUCACCUAGUUCAUCGGGUG [Fam2.2 aminoacylation ribozyme variant]	12.9		2.49	2.15	2.49	2.74
AUUCACCUAGGUCACCGGGUC [Fam2.2 aminoacylation ribozyme variant]				2.18		
CCACCCUUCAAGCAAUCGGCC [Fam1B.1 aminoacylation ribozyme variant]	3.03		3.11	2.39		
CCACACUUCAAGCAACCGCUC [Fam1B.1 aminoacylation ribozyme variant]	8.07			2.09		
CCACACUUCAAGCAACCGGUU [Fam1B.1 aminoacylation ribozyme variant]				2.04		
AUUACCCUGGUCAGCGAGUGG [Fam2.1 aminoacylation ribozyme variant]	2.26		2.61		2.51	2.51
CAGUUUGCUAAUAGUCGCAAU [Fam3.1 aminoacylation ribozyme variant]	2	2.06				
CCACCCUUCAAGCAAUCGGGC [Fam1B.1 aminoacylation ribozyme variant]	15.4	2.06	2.65	3.02		
AACAUUGCUAAUAGUCGCAAG [Fam3.1 aminoacylation ribozyme variant]	2.9	2.5	2.67			
AUUCACCUAUUUCAUCGGGUG [Fam2.2 aminoacylation ribozyme variant]	8.43		3.17	2.02	2.93	3.49
AUUCACUUAGAUCAUCGGGUG [Fam2.2 aminoacylation ribozyme variant]	10.8		2.82		2.14	2.57
AUUCACAUAGGUCAUCUGGUG [Fam2.2 aminoacylation ribozyme variant]	15.7	2.1	3.03		2.89	3.86

Sequence	self-aminoacylation (biotinyl-Phe-oxazolone)	self-aminoacylation (biotinyl-Ile-oxazolone)	self-aminoacylation (biotinyl-Trp-oxazolone)	self-aminoacylation (biotinyl-Val-oxazolone)	self-aminoacylation (biotinyl-Met-oxazolone)	self-aminoacylation (biotinyl-Leu-oxazolone)
CCACACCUCAAGCAAUCGGCC [Fam1B.1 aminoacylation ribozyme variant]			2.61	2.42		
AUUACCCUGGUCAUCGCGUCA [Fam2.1 aminoacylation ribozyme variant]	12.2		2.27	2.03	2.38	2.14
AUUCACCUAGGUUAUCGGGGG [Fam2.2 aminoacylation ribozyme variant]	6.72		2.02	2.01		2.29
GCACACUUCAAACAAUCGGUC [Fam1B.1 aminoacylation ribozyme variant]	92.2		59	2.19	2.13	2.99
AUUCACCUAGGACAACGGGUG [Fam2.2 aminoacylation ribozyme variant]	25.7		2.92		3.6	3.72
CCACACUUCACGCAAUCGCUC [Fam1B.1 aminoacylation ribozyme variant]				2.19		
CCACACUUCAAGCCAUCCGUC [Fam1B.1 aminoacylation ribozyme variant]		2.04				
AUUCACCUUGGUCAUCUGGUG [Fam2.2 aminoacylation ribozyme variant]	17.9		2.75	2.16	2.82	3.3
AUUACCCUGGUCAUCGCUUGA [Fam2.1 aminoacylation ribozyme variant]	10.7	2.09	3.08		2.25	
ACGCUUGCUAAUAGUCGCAAG [Fam3.1 aminoacylation ribozyme variant]	5.67	2.28	2.88		2.29	
AUUCACUUAGGUAAUCGGGUG [Fam2.2 aminoacylation ribozyme variant]	19.6		2.72		3.11	3.33
CCCCACUUCAAACAAUCGGUC [Fam1B.1 aminoacylation ribozyme variant]	140		61.2	2.15		2.83
GCACACUUCAAGCAACCGGUC [Fam1B.1 aminoacylation ribozyme variant]	2.92	2.31	4.35	2.43		2.46
AUUACACUGGUCAUGGAGUGA [Fam2.1 aminoacylation ribozyme variant]	2.95		2.06	2	2.63	2.48
AUUCACCUAGAUCAUAGGGUG [Fam2.2 aminoacylation ribozyme variant]	13.6		2.9	2.07	3.97	4.64
AAGCUUGCUACUAGUCGCAAG [Fam3.1 aminoacylation ribozyme variant]		2.45	2.23		2.37	2.03
CCCCACUUGAAGCAAUCGGUC [Fam1B.1 aminoacylation ribozyme variant]			2.12	2.23		
CCACACUUCAAGCAAUCGGCG [Fam1B.1 aminoacylation ribozyme variant]			2.05	2.18	2.16	
AUUACCCUGGCCAACGAGUGA [Fam2.1 aminoacylation ribozyme variant]	21		5.43		2.75	3.31
